# Where no end group is shown, it is not given here.
# Molecular target: BSA+oligo-Lys conjugate (oligo-Lys peptide K14C coupled to bovine serum albumin) (bovine) (UniProt P02769)
# Assay: MACN-labeled peptide in plasma matrix, 30 min in tubes coated with oligo-Lys-BSA to which the oligo-Asp-anti-PCT antibody was bonded; luminometer
# UniProt P02769, sequence (P02769 25-607, stated change not applied): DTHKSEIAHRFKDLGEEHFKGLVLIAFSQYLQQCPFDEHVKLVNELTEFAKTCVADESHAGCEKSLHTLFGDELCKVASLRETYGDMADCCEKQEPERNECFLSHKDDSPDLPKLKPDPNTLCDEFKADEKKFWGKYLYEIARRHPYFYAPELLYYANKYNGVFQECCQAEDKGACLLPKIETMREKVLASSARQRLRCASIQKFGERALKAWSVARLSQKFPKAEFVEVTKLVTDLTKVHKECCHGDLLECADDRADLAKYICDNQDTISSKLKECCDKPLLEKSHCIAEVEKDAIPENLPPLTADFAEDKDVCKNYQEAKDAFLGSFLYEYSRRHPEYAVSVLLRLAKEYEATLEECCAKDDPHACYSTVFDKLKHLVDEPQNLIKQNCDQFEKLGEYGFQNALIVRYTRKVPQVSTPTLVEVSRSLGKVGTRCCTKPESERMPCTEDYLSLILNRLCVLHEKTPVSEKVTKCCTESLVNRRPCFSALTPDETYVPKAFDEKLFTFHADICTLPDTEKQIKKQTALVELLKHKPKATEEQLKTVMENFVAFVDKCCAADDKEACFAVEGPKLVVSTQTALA
row,percentage of non-specific binding relative to the total activity,Binder
1,6.5%,"ATQLDGPAGALLLRLVQLAGAPEPFEPAQPDAY (also: MACN acridinium label, site not given here) [MACN-labeled peptide PAY33 (derived from copeptin)]"
2,2.9%,"ELRMSSSYPTGLADVKAGPAQTLIRPQDMKGASRSPEDSSPDAARIRV (also: MACN acridinium label, site not given here) [MACN-labeled Peptide 45-92 (derived from pro-adrenomedullin)]"
3,3%,"SSEEHLRQTRSETMRNSVKSSFHDPKLKGKPSRERYVTHNRAHW (also: MACN acridinium label, site not given here) [MACN-labeled peptide PSW44 (derived from proEndothelin)]"
4,3.1%,"PEVPPWTGEVSPAQRDGGALGGGGRGPWDSSDRSALLKSKL (also: MACN acridinium label, site not given here) [MACN-labeled peptide PPL41 (derived from NT-proANP)]"
